A word on the Kd: it is the constant that tells how readily two partners part at equilibrium. Lower therefore signals a tighter complex.

One test addresses 5G10. The test can be described thus: BLI; 500 nM antigen. Background: Biolayer interferometry detects binding as a change in optical thickness at a sensor tip.
The target in a further test is 6A5. Briefly: BLI; 500 nM antigen.

A value given as a limit tells only on which side of the number the result lay.

B1: LA0591 (other)
chain: VNPDQYCPASKKENHNIRIKRTLPPDFQLTEEWLRRLYDIATSASLTEGQIHGICGVCLLQTFQMLAELQEYHSHGPLQGGGYFFNTAPDTDPFDSFRQRYPELDTMLTDAATAYGPAYNTTRLLTLVSAMTMMPQYEWTPSREFTTRSDMHSHIRSLIDSPPGSIWLGLMQRRESDETLRWHALPILRTSQGLIVIQTRVSTMSFELYRLYLTPSTSIVQIINDYLEEADRTLTVLVTIQLEQAYQNLFDFMVSNMNCTGEGENRRGSGGYPTSATVNQCSGGRCALPNW
Turning to B1, the equilibrium dissociation constant (Kd) in the test with 5G10 and in the test with 6A5 was less than 1 pM each time.
